Test results as given in publication PMC10853802, “ESRP1 controls biogenesis and function of a large abundant multiexon circRNA”.
Residue numbers refer to the chain shown, from its start.

T1: ESRP1 qRRM2 WT (human, UniProt Q6NXG1 312-430)
T1 sequence: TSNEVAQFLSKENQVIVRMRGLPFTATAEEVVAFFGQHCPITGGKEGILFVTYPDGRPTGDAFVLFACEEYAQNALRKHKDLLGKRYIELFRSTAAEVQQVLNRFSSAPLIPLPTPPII

T2: ESRP1 qRRM2 Y398A (human, UniProt Q6NXG1 312-430, Y398A)
T2 sequence: T1 sequence with Y87A

T3: ESRP1 qRRM2 F335A (human, UniProt Q6NXG1 312-430, F335A)
T3 sequence: T1 sequence with F24A

T4: ESRP1 qRRM2 R397A (human, UniProt Q6NXG1 312-430, R397A)
T4 sequence: T1 sequence with R86A


How the values were obtained:
Details in all cases: protein: recombinant; tags: His-SUMO removed by Ulp1
ESRP1 qRRM2 WT = molecular target: T1, ESRP1 qRRM2 WT; test: X-ray crystallography (1.65 A); ITC: 100 mM NaCl, 10 mM Tris-HCl pH 8.0, 25 C; 300 uM protein injected into 20 uM RNA
ESRP1 qRRM2 Y398A = molecular target: T2, ESRP1 qRRM2 Y398A; test: ITC; ITC: 100 mM NaCl, 10 mM Tris-HCl pH 8.0, 25 C; 300 uM protein injected into 20 uM RNA
ESRP1 qRRM2 F335A = molecular target: T3, ESRP1 qRRM2 F335A; test: as above
ESRP1 qRRM2 R397A = molecular target: T4, ESRP1 qRRM2 R397A; test: as above

| Binder | binding result (ESRP1 qRRM2 WT) | binding result (ESRP1 qRRM2 Y398A) | binding result (ESRP1 qRRM2 F335A) | binding result (ESRP1 qRRM2 R397A) |
| --- | --- | --- | --- | --- |
| UGGUGGUGGUGG (ssRNA) [12-mer RNA] | binds | – | – | – |
| UGGUGG (ssRNA) [6-mer RNA] | – | no binding | no binding | no binding |
